Measurements taken from the supplement of paper PMC10567573.

B1: RHOBTB3 (parent)
chain: DSCCPAGIFQAMCLLICAEMYQVS
B2: ZNF449 (parent)
chain: FQEYDTDCEVFRQRFRQFQYREAA

Variants of: B1
Assay: protein stability index of a GFP-peptide fusion (GPS, HEK-293T) (PSI 1-6); higher = more stable
Settings: c terminus: a fixed tail appended
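Further: lentivirally expressed fusions sorted by FACS into six bins by GFP to DsRed ratio, PSI derived from sequencing read proportions per bin multiplied by bin number.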

In order of falling protein stability index:
1. C17M  5.55
2. E19L  5.4
3. C13Q  4.88
4. S24P  4.65
5. C13I  4.59
6. C17R  4.51
7. Y21I  4.41
8. V23I  4.12
9. C17H  4.02
10. F9E  4.01
11. I16G  3.97
12. A11Y  3.96
13. C13A  3.91
14. S24Q  3.86
15. V23C  3.74
16. S24T  3.71
17. L14A  3.65
18. Q22V  3.65
19. Q22G  3.65
20. C13N  3.63
21. L14E  3.59
22. C17N  3.58
23. S24Y  3.56
24. L15S  3.51
25. S24L  3.43
26. C13W  3.35
27. A18H  3.29
28. E19V  3.28
29. Q22T  3.27
30. S24K  3.25
31. S24A  3.22
32. Y21G  3.18
33. V23W  3.16
34. Q22A  3.15
35. S24N  3.14
36. L15I  3.1
37. Q22R  3.1
38. Q10K  3.05
39. E19G  2.99
40. Q22S  2.99
41. L15F  2.97
42. C17T  2.97
43. I16L  2.92
44. E19A  2.92
45. Y21R  2.92
46. M12Y  2.9
47. V23P  2.88
48. A18C  2.87
49. I16H  2.82
50. L14T  2.78
51. C13Y  2.77
52. Q10D  2.75
53. Q10P  2.72
54. E19D  2.72
55. A11C  2.69
56. I16N  2.67
57. Q22W  2.54
58. S24F  2.53
59. I16M  2.51
60. E19K  2.48
61. C13P  2.42
62. C13H  2.4
63. A11I  2.4
64. S24C  2.39
65. Y21E  2.38
66. Q10N  2.37
67. S24G  2.36
68. A18L  2.35
69. V23K  2.33
70. Q22Y  2.33
71. E19N  2.31
72. L14I  2.24
73. M20V  2.24
74. Q22I  2.2
75. L15M  2.19
76. Q22D  2.17
77. Q22P  2.12
78. E19S  2.06
79. M12Q  2.04
80. M20T  2.03
81. L15N  1.98
82. L15Y  1.98
83. S24I  1.96
84. S24M  1.94
85. C17D  1.91
86. Y21K  1.9
87. I16E  1.7
88. E19M  1.55
89. F9P  1.51
90. V23D  1.45
91. I16D  1.34
92. A11K  1.32
93. L15W  1.09
94. L15H  1.08

Variants of: B2
Assay: as above
Settings: c terminus: a fixed tail appended

In order of rising protein stability index:
1. Q13P  1.03
2. D7C  1.1
3. D5V  1.23
4. E9Y  1.27
5. D5W  1.29
6. D7V  1.34
7. D7Y  1.34
8. D5T  1.35
9. E3G  1.41
10. D5I  1.42
11. D7A  1.53
12. E9S  1.54
13. E3P  1.56
14. D5Q  1.57
15. D7M  1.59
16. E9H  1.6
17. D7P  1.61
18. D5F  1.65
19. Q13L  1.67
20. Q13M  1.67
21. E9L  1.67
22. E3N  1.68
23. E3Y  1.68
24. Q2V  1.68
25. Y4T  1.7
26. R12C  1.71
27. T6S  1.73
28. Q13Y  1.75
29. E3C  1.76
30. D5H  1.76
31. E9C  1.76
32. Q2H  1.78
33. D5G  1.78
34. D5R  1.79
35. E9V  1.79
36. Q13G  1.81
37. D7N  1.83
38. C8W  1.83
39. E3M  1.85
40. Q13F  1.87
41. E9Q  1.88
42. T6L  1.89
43. E9T  1.89
44. E3I  1.91
45. T6G  1.92
46. D7L  1.93
47. T6C  1.94
48. Q13I  1.94
49. R12W  1.94
50. E9F  1.96
51. Q2I  1.97
52. R12L  1.97
53. E3L  1.99
54. C8Y  2
55. E9A  2
56. D7G  2.02
57. D7K  2.02
58. E9W  2.02
59. E3K  2.03
60. Q13R  2.04
61. E3Q  2.04
62. C8L  2.04
63. T6K  2.05
64. D5M  2.05
65. R12Y  2.06
66. E3A  2.08
67. D7T  2.08
68. C8G  2.08
69. Q2R  2.09
70. D5C  2.09
71. T6H  2.1
72. D7S  2.1
73. T6W  2.11
74. E3H  2.11
75. D7H  2.12
76. Y4A  2.12
77. T6M  2.13
78. V10W  2.13
79. R12I  2.14
80. Y4R  2.14
81. E3S  2.15
82. E9D  2.16
83. T6E  2.17
84. R14D  2.17
85. V10A  2.2
86. C8Q  2.21
87. R12V  2.21
88. E9K  2.21
89. T6F  2.22
90. T6V  2.22
91. Q13K  2.22
92. R14C  2.23
93. E3D  2.24
94. C8F  2.24
95. R12M  2.24
96. D7I  2.25
97. D5A  2.25
98. Y4M  2.25
99. F1Y  2.25
100. Q2C  2.26
101. D7E  2.26
102. D7F  2.27
103. R12N  2.27
104. Y4S  2.27
105. D5S  2.28
106. Y4P  2.28
107. E9G  2.29
108. D7R  2.3
109. V10L  2.3
110. R12H  2.3
111. E3V  2.31
112. C8R  2.32
113. Q2L  2.33
114. Y4H  2.33
115. Y4N  2.33
116. Q13C  2.34
117. E3F  2.35
118. V10K  2.35
119. R12P  2.35
120. E9N  2.35
121. F11W  2.37
122. V10R  2.37
123. R12K  2.38
124. Q13S  2.4
125. Q13T  2.41
126. R12T  2.41
127. Y4V  2.41
128. Q13W  2.42
129. Y4I  2.42
130. F1R  2.43
131. D5E  2.45
132. E9P  2.46
133. E9I  2.47
134. Q2F  2.48
135. R12E  2.48
136. C8I  2.49
137. V10T  2.49
138. Q2Y  2.5
139. D5L  2.5
140. V10I  2.5
141. Y4F  2.5
142. Q13E  2.51
143. V10C  2.52
144. Q13V  2.53
145. Q13H  2.53
146. R12S  2.53
147. E3R  2.54
148. F11L  2.54
149. R12F  2.54
150. D5Y  2.55
151. R12G  2.57
152. T6A  2.58
153. Q13N  2.58
154. C8N  2.58
155. Q2G  2.59
156. Q13D  2.6
157. E3W  2.6
158. F1C  2.6
159. Q2M  2.61
160. R12Q  2.61
161. T6D  2.62
162. V10Y  2.62
163. C8K  2.63
164. V10M  2.63
165. D5K  2.64
166. T6Q  2.65
167. E9M  2.65
168. Y4Q  2.66
169. T6N  2.67
170. Q2W  2.67
171. V10N  2.67
172. D7Q  2.68
173. D5N  2.68
174. Q2T  2.69
175. R14E  2.69
176. C8P  2.7
177. C8M  2.71
178. C8T  2.71
179. Q13A  2.72
180. Q2P  2.72
181. F11I  2.72
182. Q2E  2.73
183. T6I  2.74
184. C8V  2.74
185. C8A  2.76
186. T6P  2.77
187. F11Y  2.78
188. V10S  2.78
189. F1Q  2.79
190. T6Y  2.81
191. F1I  2.81
192. F1W  2.82
193. R14A  2.83
194. Y4K  2.85
195. F1S  2.85
196. F1A  2.85
197. V10F  2.86
198. C8S  2.88
199. Q2A  2.9
200. V10G  2.9
201. V10P  2.92
202. Q2N  2.93
203. F11S  2.94
204. Q2K  2.96
205. F11C  2.99
206. V10H  3
207. C8H  3.01
208. Y4C  3.01
209. F1D  3.01
210. V10D  3.02
211. Y4D  3.03
212. F1M  3.03
213. V10E  3.08
214. C8D  3.11
215. F11K  3.14
216. F11T  3.15
217. Q2D  3.19
218. F1L  3.19
219. F1T  3.22
220. F1N  3.23
221. F11Q  3.24
222. F1H  3.24
223. F1E  3.25
224. F11M  3.27
225. V10Q  3.27
226. R12A  3.29
227. R12D  3.31
228. F1G  3.31
229. Q2S  3.32
230. F11P  3.33
231. C8E  3.42
232. F1P  3.42
233. F11H  3.45
234. F11E  3.51
235. F11N  3.57
236. F11G  3.6
237. F11V  3.68
238. Y4E  3.79
239. F11D  3.95
240. F11R  4.69
